T1: Mad1^CTD R630A (human, UniProt Q9Y6D9 597-718, R630A)
T1 construct: also called Mad1 R630A mutant; source: E. coli Rosetta 2 (DE3), purified (Strep-Tactin, TEV cleavage, Resource Q, Superdex 75); not shown: double Strep, N-terminal, cleaved; His6, N-terminal, cleaved
T1 sequence (looked up): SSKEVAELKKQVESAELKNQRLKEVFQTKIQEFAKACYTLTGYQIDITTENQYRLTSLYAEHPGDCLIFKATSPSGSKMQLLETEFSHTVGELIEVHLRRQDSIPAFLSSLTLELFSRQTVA

T2: Mad1^CTD Q627A (human, UniProt Q9Y6D9 597-718, Q627A)
T2 construct: also called alanine substitution of Gln627; source: E. coli Rosetta 2 (DE3), purified (Strep-Tactin, TEV cleavage, Resource Q, Superdex 75); not shown: double Strep, N-terminal, cleaved; His6, N-terminal, cleaved
T2 sequence (looked up): T1 sequence (looked up) with Q31A, A34R

T3: Mad1^CTD QRI triple mutant (Q627A, R650A, I643A) (human, UniProt Q9Y6D9 597-718, Q627A | I643A | R650A)
T3 construct: also called triple alanine mutant; source: E. coli Rosetta 2 (DE3), purified (Strep-Tactin, TEV cleavage, Resource Q, Superdex 75); not shown: double Strep, N-terminal, cleaved; His6, N-terminal, cleaved
T3 sequence (looked up): T1 sequence (looked up) with Q31A, A34R, I47A, R54A

T4: Mad1^CTD R650A (human, UniProt Q9Y6D9 597-718, R650A)
T4 construct: also called alanine substitution of Arg650; source: E. coli Rosetta 2 (DE3), purified (Strep-Tactin, TEV cleavage, Resource Q, Superdex 75); not shown: double Strep, N-terminal, cleaved; His6, N-terminal, cleaved
T4 sequence (looked up): T1 sequence (looked up) with A34R, R54A

T5: Mad1^CTD I643A (human, UniProt Q9Y6D9 597-718, I643A)
T5 construct: also called alanine substitution of Ile643; source: E. coli Rosetta 2 (DE3), purified (Strep-Tactin, TEV cleavage, Resource Q, Superdex 75); not shown: double Strep, N-terminal, cleaved; His6, N-terminal, cleaved
T5 sequence (looked up): T1 sequence (looked up) with A34R, I47A

T6: Mad1^CTD R617A (human, UniProt Q9Y6D9 597-718, R617A)
T6 construct: also called R617A mutant of Mad1; source: E. coli Rosetta 2 (DE3), purified (Strep-Tactin, TEV cleavage, Resource Q, Superdex 75); not shown: double Strep, N-terminal, cleaved; His6, N-terminal, cleaved
T6 sequence (looked up): T1 sequence (looked up) with R21A, A34R

T7: Mad1^CTD QRRI quadruple mutant (Q627A, R630A, I643A, R650A) (human, UniProt Q9Y6D9 597-718, Q627A | R630A | I643A | R650A)
T7 construct: source: E. coli Rosetta 2 (DE3), purified (Strep-Tactin, TEV cleavage, Resource Q, Superdex 75); not shown: double Strep, N-terminal, cleaved; His6, N-terminal, cleaved
T7 sequence (looked up): T1 sequence (looked up) with Q31A, I47A, R54A

T8: Mad1^CTD K619A (human, UniProt Q9Y6D9 597-718, Substituting Ala for Lys619)
T8 construct: also called Ala for Lys619; source: E. coli Rosetta 2 (DE3), purified (Strep-Tactin, TEV cleavage, Resource Q, Superdex 75); not shown: double Strep, N-terminal, cleaved; His6, N-terminal, cleaved
T8 sequence (looked up): T1 sequence (looked up) with K23A, A34R

B1: Mad1 C-terminal domain (Mad1^CTD) homodimer, residues 597-718 (domain or fragment, human, UniProt Q9Y6D9 597-718, looked up)
chain: T1 sequence (looked up) with A34R
notes: the C-terminal residue is Ala718; For NMR the same construct was made 15N-labelled or 2H,13C,15N-labelled in M9 minimal medium; also called wild-type Mad1^CTD; WT Mad1^CTD; source: E. coli Rosetta 2 (DE3), purified (Strep-Tactin, TEV cleavage, Resource Q, Superdex 75); not shown: double Strep, N-terminal, cleaved; His6, N-terminal, cleaved
B2: Mad1^CTD L618A (domain or fragment, human, UniProt Q9Y6D9 597-718, looked up)
chain: T1 sequence (looked up) with L22A, A34R
notes: Poorly expressed, aggregated easily, eluted broadly; the authors suspect mis-folding of the dimer; also called L618A mutant; source: E. coli Rosetta 2 (DE3), purified (Strep-Tactin, TEV cleavage, Resource Q, Superdex 75); not shown: double Strep, N-terminal, cleaved; His6, N-terminal, cleaved
B3: Mad1^CTD F629A (domain or fragment, human, UniProt Q9Y6D9 597-718, looked up)
chain: T1 sequence (looked up) with F33A, A34R
notes: Poorly expressed, prone to aggregate; the authors suspect a disrupted Mad1 conformation; also called F629A mutant; source: E. coli Rosetta 2 (DE3), purified (Strep-Tactin, TEV cleavage, Resource Q, Superdex 75); not shown: double Strep, N-terminal, cleaved; His6, N-terminal, cleaved
B4: phosphorylated Bub1^CD1 peptide with an additional N-terminal tryptophan (peptide)
peptide: WKVQP[pS]P[pT]VHTKEALGFIMNMFQAPTS
notes: additional N-terminal tryptophan, added to confirm the peptide concentration; Bub1 conserved domain 1 (CD1), human, stated as residues 455-479; also called Bub1^CD1 peptide with an N-terminal tryptophan residue; source: synthetic peptide (Designer Bioscience UK, 95% purity)
B5: doubly phosphorylated Bub1^CD1 peptide (pSer459-pThr461) (peptide)
peptide: KVQP[pS]P[pT]VHTKEALGFIMNMFQAPTS
notes: Bub1 conserved domain 1 (CD1), human, stated as residues 455-479; also called pSer459-pThr461 peptide; source: synthetic peptide (Designer Bioscience UK, 95% purity)

Data set [1] concerns the molecule itself. Kind of data set: AUC; sedimentation equilibrium; 20 µM Mad1^CTD with 20 or 40 µM Bub1^CD1 peptide; 20 mM HEPES pH 7.5, 100 mM NaCl, 1 mM TCEP; 20°C; two-species model.
Data set [2] concerns the molecule itself. As to the kind of experiment: SEC-MALS; 100 µl of purified protein at 0.5-2.0 mg/ml on Superdex 200 Increase 10/300 GL, 0.5 ml/min. (In general: Size exclusion chromatography separates by hydrodynamic size, large species first.)
Data set [3] has as its target B1. As to the kind of experiment: AUC; sedimentation equilibrium; 20 µM Mad1^CTD with 20 or 40 µM Bub1^CD1 peptide; 20 mM HEPES pH 7.5, 100 mM NaCl, 1 mM TCEP; 20°C; two-species model. The following applies: both partners purified.
The next data set deals with T1, Mad1^CTD R630A. Kind of data set: ITC; Bub1^CD1 peptide (0.3-1.5 mM) titrated into Mad1 (30-100 µM) in the cell; 20°C; 20 mM HEPES pH 7.5, 100 mM NaCl, 1 mM TCEP; single-site model; stoichiometry counted on dimeric Mad1^CTD. The conditions noted are these: both partners purified. (ITC needs no label: the signal is the heat of the interaction.)
A further data set deals with T2, Mad1^CTD Q627A. The description is as above. The following applies: both partners purified.
The target in data set [4] is T3, Mad1^CTD QRI triple mutant (Q627A, …). The description is as above. The conditions noted are these: both partners purified.
For a further data set, the target named is T4, Mad1^CTD R650A. The data set is described as above. The conditions noted are these: both partners purified.
The target of the next data set is T5, Mad1^CTD I643A. The description is as above. The following applies: both partners purified.
A further data set addresses T6, Mad1^CTD R617A. The description is as above. The conditions noted are these: both partners purified.
The target of data set [5] is T7, Mad1^CTD QRRI quadruple mutant (Q627A, …). The description is as above. The following applies: both partners purified.
A further data set has as its target T8, Mad1^CTD K619A. Described as above. The following applies: both partners purified.

Where a chain is given by its changes, count along the chain named. Names and notes keep the numbering of the source. Where no end group is shown, it is not given here. [ ]: non-standard residue; d: D form. pT = C[C@@H](OP(=O)(O)O)[C@H](N)C(=O)O; pS = N[C@@H](COP(=O)(O)O)C(=O)O

For the molecule B1, the “stoichiometry N” value in [1] was found to be 2.

In the case of B2, the “stoichiometry N” value in data set [2] turned out to be 2.

As for B3, the “stoichiometry N” value in [2] turned out to be 2.

On to B4, for which the “stoichiometry N” value in data set [3] is 1 peptide per Mad1^CTD dimer.

With B5, the Kd came out at 10 µM with Mad1^CTD R630A; 14.5 µM in data set [4]; 3 mM in the data set with Mad1^CTD R617A; 25 µM in [5]; 10 µM with Mad1^CTD K619A. The binding result with Mad1^CTD Q627A, with Mad1^CTD R650A and with Mad1^CTD I643A was “binds” in each case.

As usually defined, the stoichiometry N is the number of molecules, sites or subunits per partner or assembly. As a reminder, the Kd is the constant that tells how readily two partners part at equilibrium.

For the origin of these results see paper PMC8391104, “Molecular mechanism of Mad1 kinetochore targeting by phosphorylated Bub1” (EMBO Reports, 2021).
